Experimental data: patent US20100075898A1 (BEN GURION UNIVERSITY OF THE NEGEV RESEARCH AND DEVELOPMENT …, published 2010)

Tests used:
[1] = molecular target: T1, native mVDAC1 (mouse VDAC1)
T1 chain: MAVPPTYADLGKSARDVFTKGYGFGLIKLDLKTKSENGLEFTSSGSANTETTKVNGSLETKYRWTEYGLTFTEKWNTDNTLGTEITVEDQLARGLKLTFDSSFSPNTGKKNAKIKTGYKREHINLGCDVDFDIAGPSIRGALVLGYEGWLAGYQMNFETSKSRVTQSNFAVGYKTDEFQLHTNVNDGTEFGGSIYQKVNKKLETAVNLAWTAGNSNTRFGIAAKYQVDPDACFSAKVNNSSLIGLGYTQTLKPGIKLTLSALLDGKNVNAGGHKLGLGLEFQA

[2] = molecular target: T2, Δ(1-26)mVDAC1 (N-terminal truncated mouse VDAC1 lacking amino acids 1-26)
T2 chain: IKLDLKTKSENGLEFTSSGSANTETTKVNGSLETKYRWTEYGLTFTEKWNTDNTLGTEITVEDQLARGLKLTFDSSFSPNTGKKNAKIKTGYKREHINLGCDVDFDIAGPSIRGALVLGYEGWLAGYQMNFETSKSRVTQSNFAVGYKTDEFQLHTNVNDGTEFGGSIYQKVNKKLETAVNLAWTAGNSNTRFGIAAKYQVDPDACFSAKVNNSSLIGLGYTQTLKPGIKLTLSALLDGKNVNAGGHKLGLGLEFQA

[3] = molecular target: T3, purified rat brain HK-I (Hexokinase 1) (rat, UniProt P05708 1-918); assay: channel currents of planar-lipid-bilayer-reconstituted VDAC1 before and after addition of HK-I
T3 construct: Purified from rat brain; immobilised on the SPR chip or added (28 mU/ml) to bilayer-reconstituted VDAC1; also called HK-1
T3 sequence (looked up): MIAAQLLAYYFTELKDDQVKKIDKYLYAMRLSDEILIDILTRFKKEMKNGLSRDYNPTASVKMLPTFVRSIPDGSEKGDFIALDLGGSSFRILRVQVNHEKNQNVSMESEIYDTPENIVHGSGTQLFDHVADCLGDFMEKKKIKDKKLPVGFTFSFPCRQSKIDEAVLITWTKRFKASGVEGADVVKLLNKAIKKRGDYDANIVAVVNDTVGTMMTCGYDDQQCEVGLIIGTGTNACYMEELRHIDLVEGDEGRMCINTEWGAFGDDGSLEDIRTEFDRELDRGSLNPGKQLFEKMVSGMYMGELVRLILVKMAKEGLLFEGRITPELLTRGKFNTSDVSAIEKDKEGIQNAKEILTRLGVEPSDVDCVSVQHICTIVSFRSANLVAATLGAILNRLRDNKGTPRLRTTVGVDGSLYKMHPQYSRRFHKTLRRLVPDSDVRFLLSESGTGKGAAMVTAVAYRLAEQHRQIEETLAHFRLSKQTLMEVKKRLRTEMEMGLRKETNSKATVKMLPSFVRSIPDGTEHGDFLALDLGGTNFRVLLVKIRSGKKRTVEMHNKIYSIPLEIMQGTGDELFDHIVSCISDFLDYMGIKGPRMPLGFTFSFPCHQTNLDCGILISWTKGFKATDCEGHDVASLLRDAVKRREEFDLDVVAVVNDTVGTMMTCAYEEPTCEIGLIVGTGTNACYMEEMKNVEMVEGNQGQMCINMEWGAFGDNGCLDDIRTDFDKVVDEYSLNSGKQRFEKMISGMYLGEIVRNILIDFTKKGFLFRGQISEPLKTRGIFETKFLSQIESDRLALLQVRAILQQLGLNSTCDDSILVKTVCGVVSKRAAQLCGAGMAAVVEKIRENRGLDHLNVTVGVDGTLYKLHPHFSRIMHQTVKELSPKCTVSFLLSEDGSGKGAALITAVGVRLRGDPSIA
Protocol: (§1) The dashed lines indicate the zero and the maximal current levels.
(§2) Briefly, PLB were prepared from soybean asolectin dissolved in n-decane (50 mg/ml) in a chamber containing 10 mM Hepes/KOH, pH 7.4 and 0.5 or 1M NaCl (cis/trans). Only PLBs with a resistance greater than 100 GΩ were used. Purified VDAC (about 1 ng) was added to the chamber defined as the cis side. After insertion of one or more channels into the PLB, excess protein was removed by perfusion of the cis chamber with 20 volumes of a same solution. Currents were recorded under voltage-clamp mode using a Bilayer Clamp amplifier (Warner Instruments, Hamden, Conn.). Currents were measured with respect to the trans side of the membrane (ground). The currents were low-pass filtered at 1 kHz, using a Bessal filter (Frequency Devices, Haverhill, Mass.) and digitized on-line using a Digidata 1200 interface board and pCLAMP 6 software (Axon Instruments). Sigma Plot 2000 scientific software was used for data analyses. Experiments were performed at 23-25° C. […] N-terminal VDAC1 peptides were diluted in running buffer (150 mM NaCl, 0.005% Tween-20, 4% (V/V) DMSO, 10 mM PBS, pH, 7.4) and injected onto the sensor chip at varying concentrations at a flow rate of 40 μl/min at 25° C.

[4] = molecular target: T3, purified rat brain HK-I (Hexokinase 1); assay: channel currents of planar-lipid-bilayer-reconstituted mVDAC1 before and after addition of HK-I (28 mU/ml)
Protocol: as §1, §2

B1: purified rat brain HK-I (Hexokinase 1) (protein)
chain: MIAAQLLAYYFTELKDDQVKKIDKYLYAMRLSDEILIDILTRFKKEMKNGLSRDYNPTASVKMLPTFVRSIPDGSEKGDFIALDLGGSSFRILRVQVNHEKNQNVSMESEIYDTPENIVHGSGTQLFDHVADCLGDFMEKKKIKDKKLPVGFTFSFPCRQSKIDEAVLITWTKRFKASGVEGADVVKLLNKAIKKRGDYDANIVAVVNDTVGTMMTCGYDDQQCEVGLIIGTGTNACYMEELRHIDLVEGDEGRMCINTEWGAFGDDGSLEDIRTEFDRELDRGSLNPGKQLFEKMVSGMYMGELVRLILVKMAKEGLLFEGRITPELLTRGKFNTSDVSAIEKDKEGIQNAKEILTRLGVEPSDVDCVSVQHICTIVSFRSANLVAATLGAILNRLRDNKGTPRLRTTVGVDGSLYKMHPQYSRRFHKTLRRLVPDSDVRFLLSESGTGKGAAMVTAVAYRLAEQHRQIEETLAHFRLSKQTLMEVKKRLRTEMEMGLRKETNSKATVKMLPSFVRSIPDGTEHGDFLALDLGGTNFRVLLVKIRSGKKRTVEMHNKIYSIPLEIMQGTGDELFDHIVSCISDFLDYMGIKGPRMPLGFTFSFPCHQTNLDCGILISWTKGFKATDCEGHDVASLLRDAVKRREEFDLDVVAVVNDTVGTMMTCAYEEPTCEIGLIVGTGTNACYMEEMKNVEMVEGNQGQMCINMEWGAFGDNGCLDDIRTDFDKVVDEYSLNSGKQRFEKMISGMYLGEIVRNILIDFTKKGFLFRGQISEPLKTRGIFETKFLSQIESDRLALLQVRAILQQLGLNSTCDDSILVKTVCGVVSKRAAQLCGAGMAAVVEKIRENRGLDHLNVTVGVDGTLYKLHPHFSRIMHQTVKELSPKCTVSFLLSEDGSGKGAALITAVGVRLRGDPSIA
For B1, which “channel activity (currents) of bilayer-reconstituted VDAC1” value [1] is on record?
Its value is “addition of HK-I to bilayer-reconstituted native VDAC1 induced the channel to fluctuate between the fully open, sub-conducting state to a stable, long-lived low-conducting state”.

What about the “channel activity (currents) of bilayer-reconstituted VDAC1” value [2] of the same binder?
Its value is “HK-I had no effect on channel activity of the truncated version of VDAC1”.

B2: Δ(1-26)mVDAC1 (N-terminal truncated mouse VDAC1 lacking amino acids 1-26) (other)
chain: IKLDLKTKSENGLEFTSSGSANTETTKVNGSLETKYRWTEYGLTFTEKWNTDNTLGTEITVEDQLARGLKLTFDSSFSPNTGKKNAKIKTGYKREHINLGCDVDFDIAGPSIRGALVLGYEGWLAGYQMNFETSKSRVTQSNFAVGYKTDEFQLHTNVNDGTEFGGSIYQKVNKKLETAVNLAWTAGNSNTRFGIAAKYQVDPDACFSAKVNNSSLIGLGYTQTLKPGIKLTLSALLDGKNVNAGGHKLGLGLEFQA
notes: Expressed in porin-less yeast, purified and reconstituted into planar lipid bilayers; also called N-terminus truncated protein; truncated version of VDAC1
Does B2 bind [3]?
Result: no binding (tested: 28 mU/ml)

B3: native mVDAC1 (mouse VDAC1) (other)
chain: MAVPPTYADLGKSARDVFTKGYGFGLIKLDLKTKSENGLEFTSSGSANTETTKVNGSLETKYRWTEYGLTFTEKWNTDNTLGTEITVEDQLARGLKLTFDSSFSPNTGKKNAKIKTGYKREHINLGCDVDFDIAGPSIRGALVLGYEGWLAGYQMNFETSKSRVTQSNFAVGYKTDEFQLHTNVNDGTEFGGSIYQKVNKKLETAVNLAWTAGNSNTRFGIAAKYQVDPDACFSAKVNNSSLIGLGYTQTLKPGIKLTLSALLDGKNVNAGGHKLGLGLEFQA
notes: Native full-length mouse VDAC1 expressed in porin-less yeast, purified and reconstituted into planar lipid bilayers; also called native VDAC1; bilayer-reconstituted native VDAC1
Does B3 bind [4]?
Result: binds
